# Source: IntAct's records for PubMed 32296183
# B1: Catenin alpha-3 (Homo sapiens), Q9UI47-2 (parent)
# chain: MSAETPITLNIDPQDLQVQTFTVEKLLEPLIIQVTTLVNCPQNPSSRKKGRSKRASVLLASVEEATWNLLDKGEKIAQEATVLKDELTASLEEVRKESEALKVSAERFTDDPCFLPKREAVVQAARALLAAVTRLLILADMIDVMCLLQHVSAFQRTFESLKNVANKSDLQKTYQKLGKELENLDYLAFKRQQDLKSPNQRDEIAGARASLKENSPLLHSICSACLEHSDVASLKASKDTVCEEIQNALNVISNASQGIQNMTTPPEPQAATLGSALDELENLIVLNPLTVTEEEIRPSLEKRLEAIISGAALLADSSCTRDLHRERIIAECNAIRQALQDLLSEYMNNAGKKERSNTLNIALDNMCKKTRDLRRQLRKAIIDHVSDSFLDTTVPLLVLIEAAKNGREKEIKEYAAIFHEHTSRLVEVANLACSMSTNEDGIKIVKIAANHLETLCPQIINAALALAARPKSQAVKNTMEMYKRTWENHIHVLTEAVDDITSIDDFLAVSGMFLFF
# partner: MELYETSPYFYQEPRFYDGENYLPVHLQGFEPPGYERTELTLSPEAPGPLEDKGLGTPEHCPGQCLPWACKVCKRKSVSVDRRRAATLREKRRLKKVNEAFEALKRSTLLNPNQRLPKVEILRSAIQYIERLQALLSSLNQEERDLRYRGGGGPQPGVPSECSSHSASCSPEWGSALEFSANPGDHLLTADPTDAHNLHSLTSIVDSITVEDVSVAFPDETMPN
# B2: Golgi SNAP receptor complex member 2 (Homo sapiens), O14653 (parent)
# chain: MDPLFQQTHKQVHEIQSCMGRLETADKQSVHIVENEIQASIDQIFSRLERLEILSSKEPPNKRQNARLRVDQLKYDVQHLQTALRNFQHRRHAREQQERQREELLSRTFTTNDSDTTIPMDESLQFNSSLQKVHNGMDDLILDGHNILDGLRTQRLTLKGTQKKILDIANMLGLSNTVMRLIEKRAFQDKYFMIGGMLLTCVVMFLVVQYLT
# partner: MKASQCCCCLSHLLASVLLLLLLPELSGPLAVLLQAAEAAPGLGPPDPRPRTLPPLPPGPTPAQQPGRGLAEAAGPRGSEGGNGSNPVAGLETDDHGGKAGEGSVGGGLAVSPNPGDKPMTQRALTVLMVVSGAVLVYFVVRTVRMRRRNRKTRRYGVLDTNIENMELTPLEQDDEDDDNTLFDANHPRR
# B3: Very-long-chain enoyl-CoA reductase (Homo sapiens), Q9NZ01 (parent)
# chain: MKHYEVEILDAKTREKLCFLDKVEPHATIAEIKNLFTKTHPQWYPARQSLRLDPKGKSLKDEDVLQKLPVGTTATLYFRDLGAQISWVTVFLTEYAGPLFIYLLFYFRVPFIYGHKYDFTSSRHTVVHLACICHSFHYIKRLLETLFVHRFSHGTMPLRNIFKNCTYYWGFAAWMAYYINHPLYTPPTYGAQQVKLALAIFVICQLGNFSIHMALRDLRPAGSKTRKIPYPTKNPFTWLFLLVSCPNYTYEVGSWIGFAIMTQCLPVALFSLVGFTQMTIWAKGKHRSYLKEFRDYPPLRMPIIPFLL
# partner: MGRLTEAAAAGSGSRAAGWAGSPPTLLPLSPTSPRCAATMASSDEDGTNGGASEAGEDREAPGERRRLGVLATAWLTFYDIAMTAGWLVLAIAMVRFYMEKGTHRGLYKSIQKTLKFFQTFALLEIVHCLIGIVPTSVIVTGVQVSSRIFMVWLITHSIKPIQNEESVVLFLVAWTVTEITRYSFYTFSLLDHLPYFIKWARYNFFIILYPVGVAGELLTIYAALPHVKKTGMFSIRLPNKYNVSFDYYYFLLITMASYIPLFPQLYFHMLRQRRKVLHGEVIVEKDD
# B4: Golgi SNAP receptor complex member 2 (Homo sapiens), O14653 (parent)
# chain: B2 chain
# partner: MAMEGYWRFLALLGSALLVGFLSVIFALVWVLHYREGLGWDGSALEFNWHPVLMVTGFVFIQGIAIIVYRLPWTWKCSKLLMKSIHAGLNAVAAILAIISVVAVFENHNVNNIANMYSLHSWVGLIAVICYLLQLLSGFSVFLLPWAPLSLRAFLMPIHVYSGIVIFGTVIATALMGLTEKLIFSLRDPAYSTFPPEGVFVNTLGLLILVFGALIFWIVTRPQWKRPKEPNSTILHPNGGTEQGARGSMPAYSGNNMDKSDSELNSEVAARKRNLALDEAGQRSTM
# B5: Golgi SNAP receptor complex member 2 (Homo sapiens), O14653 (parent)
# chain: B2 chain
# partner: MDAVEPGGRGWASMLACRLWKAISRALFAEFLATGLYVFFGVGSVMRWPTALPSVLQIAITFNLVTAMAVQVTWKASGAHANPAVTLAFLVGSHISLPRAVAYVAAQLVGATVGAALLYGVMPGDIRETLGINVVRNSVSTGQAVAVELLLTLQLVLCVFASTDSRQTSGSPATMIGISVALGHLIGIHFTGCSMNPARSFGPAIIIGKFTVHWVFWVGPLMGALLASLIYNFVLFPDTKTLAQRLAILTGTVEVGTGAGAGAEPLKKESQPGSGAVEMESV
# B6: Dolichol kinase (Homo sapiens), Q9UPQ8 (parent)
# chain: MTRECPSPAPGPGAPLSGSVLAEAAVVFAVVLSIHATVWDRYSWCAVALAVQAFYVQYKWDRLLQQGSAVFQFRMSANSGLLPASMVMPLLGLVMKERCQTAGNPFFERFGIVVAATGMAVALFSSVLALGITRPVPTNTCVILGLAGGVIIYIMKHSLSVGEVIEVLEVLLIFVYLNMILLYLLPRCFTPGEALLVLGGISFVLNQLIKRSLTLVESQGDPVDFFLLVVVVGMVLMGIFFSTLFVFMDSGTWASSIFFHLMTCVLSLGVVLPWLHRLIRRNPLLWLLQFLFQTDTRIYLLAYWSLLATLACLVVLYQNAKRSSSESKKHQAPTIARKYFHLIVVATYIPGIIFDRPLLYVAATVCLAVFIFLEYVRYFRIKPLGHTLRSFLSLFLDERDSGPLILTHIYLLLGMSLPIWLIPRPCTQKGSLGGARALVPYAGVLAVGVGDTVASIFGSTMGEIRWPGTKKTFEGTMTSIFAQIISVALILIFDSGVDLNYSYAWILGSISTVSLLEAYTTQIDNLLLPLYLLILLMA
# partner: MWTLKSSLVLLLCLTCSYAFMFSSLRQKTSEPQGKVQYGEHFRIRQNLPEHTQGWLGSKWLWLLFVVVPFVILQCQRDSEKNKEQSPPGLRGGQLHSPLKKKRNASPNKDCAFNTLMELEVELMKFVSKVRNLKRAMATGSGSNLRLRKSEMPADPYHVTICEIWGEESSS
# B7: Very-long-chain enoyl-CoA reductase (Homo sapiens), Q9NZ01 (parent)
# chain: B3 chain
# partner: B6 partner
# B8: Catenin alpha-3 (Homo sapiens), Q9UI47-2 (parent)
# chain: B1 chain
# partner: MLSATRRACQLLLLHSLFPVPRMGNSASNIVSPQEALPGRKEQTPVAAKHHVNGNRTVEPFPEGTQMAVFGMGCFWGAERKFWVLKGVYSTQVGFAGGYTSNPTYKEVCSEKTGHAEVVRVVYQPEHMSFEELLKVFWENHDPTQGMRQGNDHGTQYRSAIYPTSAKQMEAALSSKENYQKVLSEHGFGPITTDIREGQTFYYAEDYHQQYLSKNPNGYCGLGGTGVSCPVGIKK
# B9: Very-long-chain enoyl-CoA reductase (Homo sapiens), Q9NZ01 (parent)
# chain: B3 chain
# partner: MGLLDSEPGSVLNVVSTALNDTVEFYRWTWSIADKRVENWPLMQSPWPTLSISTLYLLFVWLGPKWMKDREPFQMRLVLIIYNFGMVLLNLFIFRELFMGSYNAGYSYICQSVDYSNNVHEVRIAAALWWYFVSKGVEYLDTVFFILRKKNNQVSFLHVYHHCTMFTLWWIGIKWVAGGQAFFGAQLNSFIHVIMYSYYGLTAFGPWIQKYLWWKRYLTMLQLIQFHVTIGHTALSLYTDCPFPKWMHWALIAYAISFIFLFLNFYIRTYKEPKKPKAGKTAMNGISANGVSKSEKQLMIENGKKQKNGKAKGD
# B10: Dolichol kinase (Homo sapiens), Q9UPQ8 (parent)
# chain: B6 chain
# partner: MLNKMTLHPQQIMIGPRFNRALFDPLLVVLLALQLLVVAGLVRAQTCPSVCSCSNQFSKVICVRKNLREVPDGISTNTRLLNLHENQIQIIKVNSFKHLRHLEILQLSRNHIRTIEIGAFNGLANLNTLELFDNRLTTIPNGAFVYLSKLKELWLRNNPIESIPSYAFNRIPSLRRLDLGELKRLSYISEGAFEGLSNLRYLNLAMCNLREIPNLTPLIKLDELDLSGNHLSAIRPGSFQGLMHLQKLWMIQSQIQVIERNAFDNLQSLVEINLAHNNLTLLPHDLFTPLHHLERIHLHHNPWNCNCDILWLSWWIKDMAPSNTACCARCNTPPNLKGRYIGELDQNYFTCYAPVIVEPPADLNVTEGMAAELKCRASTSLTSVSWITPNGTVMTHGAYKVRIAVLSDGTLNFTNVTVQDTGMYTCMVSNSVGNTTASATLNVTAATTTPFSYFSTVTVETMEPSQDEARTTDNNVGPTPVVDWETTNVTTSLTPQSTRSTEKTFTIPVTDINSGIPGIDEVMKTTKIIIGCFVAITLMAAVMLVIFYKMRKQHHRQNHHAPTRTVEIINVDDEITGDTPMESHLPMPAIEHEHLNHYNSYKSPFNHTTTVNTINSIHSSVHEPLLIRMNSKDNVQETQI
# B11: Golgi SNAP receptor complex member 2 (Homo sapiens), O14653 (parent)
# chain: B2 chain
# partner: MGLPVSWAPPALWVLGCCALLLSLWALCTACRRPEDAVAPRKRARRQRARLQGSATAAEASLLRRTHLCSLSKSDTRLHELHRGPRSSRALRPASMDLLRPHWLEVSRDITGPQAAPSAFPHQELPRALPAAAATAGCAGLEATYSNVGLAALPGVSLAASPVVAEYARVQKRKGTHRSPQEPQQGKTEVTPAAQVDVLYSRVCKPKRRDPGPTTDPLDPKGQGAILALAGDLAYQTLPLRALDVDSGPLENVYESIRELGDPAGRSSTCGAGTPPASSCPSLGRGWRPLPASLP
# Variants of: B1
# Details: with myog_human MYOG
row,effect of a mutation on the interaction,Variant
1,disrupting interaction strength,V94D

# Variants of: B2
# Details: with FAM174A
row,effect of a mutation on the interaction,Variant
1,with no effect,G144W

# Variants of: B3
# Details: with hacd1_human HACD1, B0YJ81
row,effect of a mutation on the interaction,Variant
1,disrupting interaction strength,P182L

# Variants of: B4
# Details: with cybr1_human CYBRD1, Q53TN4
row,effect of a mutation on the interaction,Variant
1,with no effect,G144W

# Variants of: B5
# Details: with aqp6_human AQP6, Q13520
row,effect of a mutation on the interaction,Variant
1,with no effect,G144W

# Variants of: B6
# Details: with FAM209A
row,effect of a mutation on the interaction,Variant
1,disrupting interaction strength,Y441S

# Variants of: B7
# Details: with FAM209A
row,effect of a mutation on the interaction,Variant
1,disrupting interaction strength,P182L

# Variants of: B8
# Details: with msra_human MSRA
row,effect of a mutation on the interaction,Variant
1,with no effect,V94D

# Variants of: B9
# Details: with elov4_human ELOVL4, Q9GZR5
row,effect of a mutation on the interaction,Variant
1,disrupting interaction strength,P182L

# Variants of: B10
# Details: with lrc4c_human LRRC4C
row,effect of a mutation on the interaction,Variant
1,disrupting interaction strength,Y441S

# Variants of: B11
# Details: with lime1_human LIME1, Q9H400
row,effect of a mutation on the interaction,Variant
1,disrupting interaction strength,G144W
